{"source": "paper PMC7984254", "about": "(Biochimica et biophysica acta. Molecular cell research, 2020)", "target": "recombinant FGF14 protein (aa 64–252) (human, UniProt Q92915-2 64-252)", "test": "SPR", "data": [{"binder": "KFKESVFENAYVIYSSMLYR (peptide, UniProt Q92915-2 149-168, looked up)", "note": "[FGF14^Y158A mutant peptide]", "values": [{"measurement": "koff", "value": 0.158, "unit": "s⁻¹"}, {"measurement": "kon", "value": 23200, "unit": "M⁻¹ s⁻¹"}]}]}
